Experimental findings from US10314894B2, “Treatment of cardio-renal disease using PCSK6” (THE CLEVELAND CLINIC FOUNDATION, priority 2014, dated 2019) are described below.

Experiment [1] addresses T1, corin mutant R801A (Homo sapiens, UniProt Q9Y5Q5, R801A).
T1 construct: expressed in transfected cells; host or cells: HEK293
T1 sequence (Q9Y5Q5 1-1042 R801A): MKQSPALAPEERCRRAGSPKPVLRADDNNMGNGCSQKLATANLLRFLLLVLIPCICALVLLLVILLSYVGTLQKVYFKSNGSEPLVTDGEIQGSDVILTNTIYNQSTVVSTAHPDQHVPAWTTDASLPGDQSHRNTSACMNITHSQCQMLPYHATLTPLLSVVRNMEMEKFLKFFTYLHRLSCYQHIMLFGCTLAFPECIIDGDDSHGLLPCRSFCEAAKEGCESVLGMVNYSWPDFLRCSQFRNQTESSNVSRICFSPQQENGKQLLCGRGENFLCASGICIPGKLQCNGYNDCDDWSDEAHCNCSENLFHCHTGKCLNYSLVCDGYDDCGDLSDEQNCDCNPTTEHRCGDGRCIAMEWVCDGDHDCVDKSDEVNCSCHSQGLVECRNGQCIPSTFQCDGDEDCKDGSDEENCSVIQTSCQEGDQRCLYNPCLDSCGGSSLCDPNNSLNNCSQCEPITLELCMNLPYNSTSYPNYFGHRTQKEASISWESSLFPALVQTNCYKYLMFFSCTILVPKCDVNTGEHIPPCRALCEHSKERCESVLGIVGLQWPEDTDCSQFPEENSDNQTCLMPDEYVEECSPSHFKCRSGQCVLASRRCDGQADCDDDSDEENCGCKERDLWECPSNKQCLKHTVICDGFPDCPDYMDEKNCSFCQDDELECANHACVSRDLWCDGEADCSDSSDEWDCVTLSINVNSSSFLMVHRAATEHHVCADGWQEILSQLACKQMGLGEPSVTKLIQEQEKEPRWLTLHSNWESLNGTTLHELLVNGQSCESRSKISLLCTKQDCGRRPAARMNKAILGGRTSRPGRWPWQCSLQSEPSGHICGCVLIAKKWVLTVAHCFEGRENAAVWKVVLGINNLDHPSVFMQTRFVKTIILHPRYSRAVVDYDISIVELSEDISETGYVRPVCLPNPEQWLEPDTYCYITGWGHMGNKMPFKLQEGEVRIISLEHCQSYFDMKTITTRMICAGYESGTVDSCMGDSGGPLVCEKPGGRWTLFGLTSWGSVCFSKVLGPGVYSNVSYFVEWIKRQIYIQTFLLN
The experiment is described as follows: Corin activation by purified PCSK6 on HEK293 cells, corin mutant R801A. It is filed as cell-based. The conditions noted are these: corin R801A mutant lacking the cleavage site, 2 h. As to the method: HEK293 and HL-1 cells expressing recombinant corin in 6-well plates were incubated with 1.5 mL (200 μM) of membrane impermeable Sulfo-NHS-SS-biotin for 5 min. Qi et al., J Biol Chem 286, 20963-20969 (2011). A quenching solution was added to the wells and incubated on ice for 10 min. Cells were lysed in the lysis buffer. Labeled proteins were isolated with avidin-coupled agarose beads and analyzed by Western blotting.
Stable HEK293 cells were established to produce human PCSK6 with a C-terminal flag tag. The cells were cultured in DMEM with 10% FBS and 600 μg/mL G418. At confluency, the cells were washed with PBS and cultured with Reduced-Serum Medium. After 72 h, the conditioned medium was collected, centrifuged (10 min at 17,000 g) to remove cell debris, and concentrated to ⅕ of the original volume using a Centrifugal filter unit at 4° C. The concentrated medium was incubated with anti-flag M2 affinity bead slurry in a volume ratio of 25:1 on a rotator at 4° C. for 2 h. […] After centrifugation, the supernatant containing purified PCSK6 was collected, and analyzed by SDS-PAGE followed by silver staining and Western blotting.
Stable HEK293 cells expressing human corin were cultured in 6-well plates in DMEM with 10% FBS and 2 μM monensin. […] After 2 h, cell surface proteins were labeled and corin protein was analyzed by Western blotting.

For experiment [2], the target named is T1, corin mutant R801A. The experiment is described as follows: PCSK6-mediated corin activation in HEK293 cells, corin mutant R801A (control). It is filed as cell-based. The following applies: corin mutant R801A lacking the cleavage site. From the text: Plasmids expressing human corin WT and mutants R801A, S985A, T555I, Q568P, T555I/Q568P, K317E, S472G and R539C were reported previously. Dong, N. et al., J Biol Chem 289, 17909-17916 (2014); Knappe et al., J Biol Chem 278, 52363-52370 (2003); Wu et al., J Biol Chem 277, 16900-16905. (2002). Plasmids expressing human PCSK1-9 were made by cloning respective cDNAs into pcNDA3.1 vector. Recombinant corin and PCSK proteins encoded by these plasmids contained a C-terminal V5 or flag tag for protein detection in Western blotting.
HEK293 and HL-1 cells were transfected with corin or PCSK6 expression plasmids. After 48-72 h, cells were lysed in a buffer containing 25 mM Tris-HCl, pH 7.4, 150 mM NaCl, 1 mM EDTA, 1% (v/v) NP-40, and 1% (v/v) protease inhibitor cocktail. Recombinant corin and PCSK6 proteins were immunoprecipitated with an anti-V5 or anti-flag antibody. Western blotting was carried out to analyze corin expression and activation or PCSK6 expression with or without reducing agents. Percentage of corin activation (corin-p vs. corin fragments) was quantified by densitometric analysis of Western blots.

B1: proprotein convertase subtilisin/kexin-6 (protein, listed as Homo sapiens)
chain: MPPRAPPAPGPRPPPRAAAATDTAAGAGGAGGAGGAGGPGFRPLAPRPWRWLLLLALPAACSAPPPRPVYTNHWAVQVLGGPAEADRVAAAHGYLNLGQIGNLEDYYHFYHSKTFKRSTLSSRGPHTFLRMDPQVKWLQQQEVKRRVKRQVRSDPQALYFNDPIWSNMWYLHCGDKNSRCRSEMNVQAAWKRGYTGKNVVVTILDDGIERNHPDLAPNYDSYASYDVNGNDYDPSPRYDASNENKHGTRCAGEVAASANNSYCIVGIAYNAKIGGIRMLDGDVTDVVEAKSLGIRPNYIDIYSASWGPDDDGKTVDGPGRLAKQAFEYGIKKGRQGLGSIFVWASGNGGREGDYCSCDGYTNSIYTISVSSATENGYKPWYLEECASTLATTYSSGAFYERKIVTTDLRQRCTDGHTGTSVSAPMVAGIIALALEANSQLTWRDVQHLLVKTSRPAHLKASDWKVNGAGHKVSHFYGFGLVDAEALVVEAKKWTAVPSQHMCVAASDKRPRSIPLVQVLRTTALTSACAEHSDQRVVYLEHVVVRTSISHPRRGDLQIYLVSPSGTKSQLLAKRLLDLSNEGFTNWEFMTVHCWGEKAEGQWTLEIQDLPSQVRNPEKQGKLKEWSLILYGTAEHPYHTFSAHQSRSRMLELSAPELEPPKAALSPSQVEVPEDEEDYTAQSTPGSANILQTSVCHPECGDKGCDGPNADQCLNCVHFSLGSVKTSRKCVSVCPLGYFGDTAARRCRRCHKGCETCSSRAATQCLSCRRGFYHHQEMNTCVTLCPAGFYADESQKNCLKCHPSCKKCVDEPEKCTVCKEGFSLARGSCIPDCEPGTYFDSELIRCGECHHTCGTCVGPGREECIHCAKNFHFHDWKCVPACGEGFYPEEMPGLPHKVCRRCDENCLSCAGSSRNCSRCKTGFTQLGTSCITNHTCSNADETFCEMVKSNRLCERKLFIQFCCRTCLLAG
modifications: C-terminal FLAG tag
On to B1, for which the “activation of corin on the cell surface by purified recombinant PCSK6” value in experiment [1] was “did not cleave”. In addition, the PCSK6-mediated activation cleavage result in experiment [2] is recorded as “no activation cleavage was detected”.
